Non-standard residues stand in square brackets, D forms with d. No end group written: not given here. Dip = N[C@H](C(=O)O)C(c1ccccc1)c1ccccc1
Columns and labels:
[1] = 20-30° C., protected from light; cited from earlier work
[2] = Appearance of LTX-315 drug product in sealed vials on storage (visual, Ph.Eur 2.9.20), Example 1.1; type: physicochemical
Procedure: (§1) • LTX-315=acetate salt of peptide with sequence K-K-W-W-K-K-W-Dip-K-NH2 20 mg/mL LTX-315 drug product was prepared by dissolving LTX-315 powder in WFI and filtered through a 0.22 μm sterile filter. 1 ml of the drug product was then filled into vials and sealed. The WFI complied to the Ph. Eur monograph 0169 for WFI. All product contact vials, glassware and peripherals were sterilised by depyrogenation in a hot air oven at 250° C. for 120 minutes after twice rinsing with WFI. Product contact tubing, stoppers and over-seals were twice rinsed with WFI then sterilised by autoclaving for >15 minutes at 121° C. then dried overnight in a drying oven. The vials were stored as set out in Table 1 below and analysed according to the listed parameters. Appearance was tested visually according to Ph.Eur 2.9.20 and osmolality according to Ph. Eur. 2.2.35. pH was tested according to Ph. Eur. 2.2.3. Colour and clarity were tested according to Ph. Eur 2.2.2 and Ph. Eur 2.2.1, respectively.

[3] = Osmolality of LTX-315 drug product on storage (Ph. Eur. 2.2.35), Example 1.1; type: physicochemical; details: 20 mg/mL in WFI
Procedure: as §1

[4] = pH of LTX-315 drug product on storage (Ph. Eur. 2.2.3), Example 1.1; type: physicochemical; details: 20 mg/mL in WFI
Procedure: as §1

[5] = LTX-315 concentration after storage, reversed phase HPLC UV 220 nm, Example 1.2; type: physicochemical; details: for LTX-315 concentration, Vial 1 / LTX-315 concentration, Vial 2 / Mean content / Rec./T = 0 / Rec./theory (percentage of theoretical 20 mg/mL): 20 mg/mL in WFI
Procedure: (§2) Drug product was prepared and stored as described in Example 1.1.
(§3) Reversed phase HPLC, using a trifluoracetic acid (TFA) system and UV detection at 220 nm, was used to determine the amount of LTX-315 after storage of the vials in accordance with the storage conditions set out in Table 2.
(§4) The column used was an RP C18, e.g. Waters Sunfire, 3.5 μm, 4.6×150 mm. The LTX-315 concentration in the test sample solution was 0.5 mg/ml and the injection volume 10 μl. The gradient profile used is set out below and the flow rate was 1.2 mL/min.

[6] = Purity/related substances after storage, HPLC, Example 1.3; type: physicochemical; details: 20 mg/mL in WFI
Procedure: as §3, §4, §2
HPLC analysis was performed as described in Example 1.2 to determine the concentration of LTX-315 and the amount of related substances, i.e. substances formed due to and thus related to the degradation of LTX-315 in the drug product.

C[C@@H](O)[C@@H]1NC(=O)[C@H](CCCCN)NC(=O)[C@@H](Cc2c[nH]c3ccccc23)NC(=O)[C@H](Cc2ccccc2)NC(=O)[C@@H](NC(=O)[C@H](N)Cc2ccccc2)CSSC[C@@H](C(=O)N[C@H](CO)[C@@H](C)O)NC1=O [octreotide]
Permitted storage time of liquid product [1]: up to 14 days

K-K-W-W-K-K-W-Dip-K-NH2 (KKWWKKW[Dip]K-NH2) [LTX-315]
Change in appearance, osmolality, pH, colour and clarity ([2]; 6 months at 25° C. with 60% RH in the dark): no change | Change in appearance, osmolality, pH, colour and clarity ([2]; 24 months in the dark at 2-8° C.): no change | Osmolality ([3]; 2-8° C., T = 6 months): 133 mOsmkg^−1 | Osmolality ([3]; 2-8° C., T = 12 months): 133 mOsmkg^−1 | Osmolality ([3]; 2-8° C., T = 24 months): 132 mOsmkg^−1 | Osmolality ([3]; 25° C./60% RH, T = 6 months): 133 mOsmkg^−1 | Osmolality ([3]; Initial (T = 0)): 132 mOsmkg^−1 | pH ([4]; 2-8° C., T = 3 months): 6.2 | pH ([4]; 2-8° C., T = 6 months): 6.0 | pH ([4]; 2-8° C., T = 12 months): 6.1 | pH ([4]; 2-8° C., T = 24 months): 6.1 | pH ([4]; 25° C./60% RH, T = 3 months): 6.2 | pH ([4]; 25° C./60% RH, T = 6 months): 6.1 | pH ([4]; Initial (T = 0)): 6.1 | LTX-315 concentration, Vial 1 ([5]; 2-8° C., T = 1 month): 20.548 mg/mL | LTX-315 concentration, Vial 2 ([5]; 2-8° C., T = 1 month): 19.916 mg/mL | Mean content ([5]; 2-8° C., T = 1 month): 20.2 mg/mL | Rec./T = 0 ([5]; 2-8° C., T = 1 month): 96.3% | Rec./theory (percentage of theoretical 20 mg/mL) ([5]; 2-8° C., T = 1 month): 101.2% | LTX-315 concentration, Vial 1 ([5]; 2-8° C., T = 3 months): 21.241 mg/mL | LTX-315 concentration, Vial 2 ([5]; 2-8° C., T = 3 months): 21.276 mg/mL | Mean content ([5]; 2-8° C., T = 3 months): 21.2 mg/mL | Rec./T = 0 ([5]; 2-8° C., T = 3 months): 101.1% | Rec./theory (percentage of theoretical 20 mg/mL) ([5]; 2-8° C., T = 3 months): 106.3% | LTX-315 concentration, Vial 1 ([5]; 2-8° C., T = 6 months): 20.979 mg/mL | LTX-315 concentration, Vial 2 ([5]; 2-8° C., T = 6 months): 21.027 mg/mL | Mean content ([5]; 2-8° C., T = 6 months): 21.0 mg/mL | Rec./T = 0 ([5]; 2-8° C., T = 6 months): 99.9% | Rec./theory (percentage of theoretical 20 mg/mL) ([5]; 2-8° C., T = 6 months): 105.0% | LTX-315 concentration, Vial 1 ([5]; 2-8° C., T = 9 months): 20.311 mg/mL | LTX-315 concentration, Vial 2 ([5]; 2-8° C., T = 9 months): 20.631 mg/mL | Mean content ([5]; 2-8° C., T = 9 months): 20.4 mg/mL | Rec./T = 0 ([5]; 2-8° C., T = 9 months): 97.4% | Rec./theory (percentage of theoretical 20 mg/mL) ([5]; 2-8° C., T = 9 months): 102.4% | LTX-315 concentration, Vial 1 ([5]; 2-8° C., T = 12 months): 20.895 mg/mL | LTX-315 concentration, Vial 2 ([5]; 2-8° C., T = 12 months): 20.631 mg/mL | Mean content ([5]; 2-8° C., T = 12 months): 20.7 mg/mL | Rec./T = 0 ([5]; 2-8° C., T = 12 months): 98.8% | Rec./theory (percentage of theoretical 20 mg/mL) ([5]; 2-8° C., T = 12 months): 103.8% | LTX-315 concentration, Vial 1 ([5]; 2-8° C., T = 18 months): 19.204 mg/mL | LTX-315 concentration, Vial 2 ([5]; 2-8° C., T = 18 months): 19.990 mg/mL | Mean content ([5]; 2-8° C., T = 18 months): 19.6 mg/mL | Rec./T = 0 ([5]; 2-8° C., T = 18 months): 93.2% | Rec./theory (percentage of theoretical 20 mg/mL) ([5]; 2-8° C., T = 18 months): 98.0% | LTX-315 concentration, Vial 1 ([5]; 2-8° C., T = 24 months): 20.150 mg/mL | LTX-315 concentration, Vial 2 ([5]; 2-8° C., T = 24 months): 19.669 mg/mL | Mean content ([5]; 2-8° C., T = 24 months): 19.9 mg/mL | Rec./T = 0 ([5]; 2-8° C., T = 24 months): 94.7% | Rec./theory (percentage of theoretical 20 mg/mL) ([5]; 2-8° C., T = 24 months): 99.5% | LTX-315 concentration, Vial 1 ([5]; 25° C./60% RH, T = 1 month): 20.269 mg/mL | LTX-315 concentration, Vial 2 ([5]; 25° C./60% RH, T = 1 month): 20.194 mg/mL | Mean content ([5]; 25° C./60% RH, T = 1 month): 20.2 mg/mL | Rec./T = 0 ([5]; 25° C./60% RH, T = 1 month): 96.2% | Rec./theory (percentage of theoretical 20 mg/mL) ([5]; 25° C./60% RH, T = 1 month): 101.2% | LTX-315 concentration, Vial 1 ([5]; 25° C./60% RH, T = 3 months): 20.897 mg/mL | LTX-315 concentration, Vial 2 ([5]; 25° C./60% RH, T = 3 months): 20.222 mg/mL | Mean content ([5]; 25° C./60% RH, T = 3 months): 20.5 mg/mL | Rec./T = 0 ([5]; 25° C./60% RH, T = 3 months): 97.8% | Rec./theory (percentage of theoretical 20 mg/mL) ([5]; 25° C./60% RH, T = 3 months): 102.8% | LTX-315 concentration, Vial 1 ([5]; 25° C./60% RH, T = 6 months): 20.575 mg/mL | LTX-315 concentration, Vial 2 ([5]; 25° C./60% RH, T = 6 months): 20.215 mg/mL | Mean content ([5]; 25° C./60% RH, T = 6 months): 20.3 mg/mL | Rec./T = 0 ([5]; 25° C./60% RH, T = 6 months): 97.0% | Rec./theory (percentage of theoretical 20 mg/mL) ([5]; 25° C./60% RH, T = 6 months): 102.0% | LTX-315 concentration, Vial 1 ([5]; Initial (T = 0)): 21.068 mg/mL | LTX-315 concentration, Vial 2 ([5]; Initial (T = 0)): 20.978 mg/mL | Mean content ([5]; Initial (T = 0)): 21.0 mg/mL | Rec./theory (percentage of theoretical 20 mg/mL) ([5]; Initial (T = 0)): 105.1% | Change in LTX-315 concentration ([5]; 2-8° C., 24 months): very slight decrease | Concentration of LTX-315 versus T=0 ([5]; 25° C. with 60% relative humidity, six months): the same as the concentration at T=0 | Total related substances (sum of related substances >0.05%) ([6]; 2-8° C., 1 M): 1.31 area % | Total related substances (sum of related substances >0.05%) ([6]; 2-8° C., 3 M): 1.32 area % | Total related substances (sum of related substances >0.05%) ([6]; 2-8° C., 6 M): 0.98 area % | Total related substances (sum of related substances >0.05%) ([6]; 2-8° C., 9 M): 1.54 area % | Total related substances (sum of related substances >0.05%) ([6]; 2-8° C., 12 M): 1.34 area % | Total related substances (sum of related substances >0.05%) ([6]; 2-8° C., 18 M): 1.37 area % | Total related substances (sum of related substances >0.05%) ([6]; 2-8° C., 24 M): 1.64 area % | Total related substances (sum of related substances >0.05%) ([6]; 2-8° C., Initial (T = 0)): 0.88 area % | Total related substances (sum of related substances >0.05%) ([6]; 25° C./60% RH, 1 M): 1.55 area % | Total related substances (sum of related substances >0.05%) ([6]; 25° C./60% RH, 3 M): 1.97 area % | Total related substances (sum of related substances >0.05%) ([6]; 25° C./60% RH, 6 M): 2.31 area % | Total related substances (sum of related substances >0.05%) ([6]; 25° C./60% RH, Initial (T = 0)): 0.88 area %
